{"source": "patent US20170291954A1", "binders": {"B1": {"name": "4E5 scFv, secreted from yeast as a fusion protein and purified on nickel-HIS beads (scFv, part only; not given: linker and fusion partner, not shown: large carriers)", "scFv, part": "QVQLQQSGAELVRPGASVKLSCKASGYTFNDYEMHWVKQTPVHGLKWIGALEPKTGDTAYSQKFKGKATLTADKSSSTAYMELRSLTSEDSAVYYCTSCYYYTYSGQGTLVTVSADVVMTQTPLSLPVSLGDQASISCRSSQSLVHSNGNTYLHWYLQKPGQSPKLLIYKVSNRFSGVPDRFSGSGSGTDFTLKISRVEAEDLGVYFCSQNTPVPPKFGSGTKLEIK"}}, "key": {"[1]": {"target": "GPC3-GST fusion protein", "sequence (P51654 368-548)": "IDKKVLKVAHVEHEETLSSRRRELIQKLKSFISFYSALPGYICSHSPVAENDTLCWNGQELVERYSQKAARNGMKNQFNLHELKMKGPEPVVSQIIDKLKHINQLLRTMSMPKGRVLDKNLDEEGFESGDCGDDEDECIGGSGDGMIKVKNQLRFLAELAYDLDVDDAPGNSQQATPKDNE", "assay": "ELISA, GPC3-GST fusion protein as antigen at 1 ug/ml"}, "[2]": {"target": "GPC3-GST fusion protein", "assay": "ELISA, GPC3-GST fusion protein as antigen at 0.5 ug/ml"}}, "data": [{"binder": "B1", "values": [{"measurement": "EC50", "setting": "[1]", "value": 43.1, "unit": "nM"}, {"measurement": "EC50", "setting": "[2]", "value": 52, "unit": "nM"}]}]}
